Measured values reported in publication doi:10.1101/2022.08.30.505748 (bioRxiv, 2022).
Like-named read-outs stand apart in the source and are kept apart here.

Key:
[1] = target: BIRC6 (Baculoviral IAP repeat-containing protein 6), full-length, wild-type, tag removed (UniProt Q9NR09); assay: cryo-EM structure; settings: remark: other sources report otherwise
[2] = target: BIRC6 (Baculoviral IAP repeat-containing protein 6), full-length, wild-type, tag removed (UniProt Q9NR09); assay: SEC-MALS; settings: remark: other sources report otherwise
[3] = target: BIRC6 (Baculoviral IAP repeat-containing protein 6), full-length, wild-type, tag removed (UniProt Q9NR09); assay: cryo-EM structure; settings: remark: other sources report otherwise; remark: listed apart in the source
[4] = target: Alexa555-SMAC (WT), a.a. 56-239 with a C-terminal cysteine (UniProt Q9NR28); assay: fluorescence polarisation
[5] = target: activated caspase-3 (WT), His6-tagged, RED-tris-NTA labelled (UniProt P42574); assay: MST
[6] = target: activated caspase-9, His6-tagged, RED-tris-NTA labelled (UniProt P55211); assay: MST
[7] = target: activated caspase-7, His6-tagged, RED-tris-NTA labelled (UniProt P55210); assay: MST
cryo-EM structure = target: the molecule itself; assay: cryo-EM structure
[8] = target: T1, BIRC6 (Baculoviral IAP repeat-containing protein 6), full-length, wild-type, tag removed (UniProt Q9NR09 1-4857); assay: fluorescence polarisation
[9] = target: T1, BIRC6 (Baculoviral IAP …); assay: fluorescence polarisation; remark: listed apart in the source

T1 sequence (Q9NR09 whole entry): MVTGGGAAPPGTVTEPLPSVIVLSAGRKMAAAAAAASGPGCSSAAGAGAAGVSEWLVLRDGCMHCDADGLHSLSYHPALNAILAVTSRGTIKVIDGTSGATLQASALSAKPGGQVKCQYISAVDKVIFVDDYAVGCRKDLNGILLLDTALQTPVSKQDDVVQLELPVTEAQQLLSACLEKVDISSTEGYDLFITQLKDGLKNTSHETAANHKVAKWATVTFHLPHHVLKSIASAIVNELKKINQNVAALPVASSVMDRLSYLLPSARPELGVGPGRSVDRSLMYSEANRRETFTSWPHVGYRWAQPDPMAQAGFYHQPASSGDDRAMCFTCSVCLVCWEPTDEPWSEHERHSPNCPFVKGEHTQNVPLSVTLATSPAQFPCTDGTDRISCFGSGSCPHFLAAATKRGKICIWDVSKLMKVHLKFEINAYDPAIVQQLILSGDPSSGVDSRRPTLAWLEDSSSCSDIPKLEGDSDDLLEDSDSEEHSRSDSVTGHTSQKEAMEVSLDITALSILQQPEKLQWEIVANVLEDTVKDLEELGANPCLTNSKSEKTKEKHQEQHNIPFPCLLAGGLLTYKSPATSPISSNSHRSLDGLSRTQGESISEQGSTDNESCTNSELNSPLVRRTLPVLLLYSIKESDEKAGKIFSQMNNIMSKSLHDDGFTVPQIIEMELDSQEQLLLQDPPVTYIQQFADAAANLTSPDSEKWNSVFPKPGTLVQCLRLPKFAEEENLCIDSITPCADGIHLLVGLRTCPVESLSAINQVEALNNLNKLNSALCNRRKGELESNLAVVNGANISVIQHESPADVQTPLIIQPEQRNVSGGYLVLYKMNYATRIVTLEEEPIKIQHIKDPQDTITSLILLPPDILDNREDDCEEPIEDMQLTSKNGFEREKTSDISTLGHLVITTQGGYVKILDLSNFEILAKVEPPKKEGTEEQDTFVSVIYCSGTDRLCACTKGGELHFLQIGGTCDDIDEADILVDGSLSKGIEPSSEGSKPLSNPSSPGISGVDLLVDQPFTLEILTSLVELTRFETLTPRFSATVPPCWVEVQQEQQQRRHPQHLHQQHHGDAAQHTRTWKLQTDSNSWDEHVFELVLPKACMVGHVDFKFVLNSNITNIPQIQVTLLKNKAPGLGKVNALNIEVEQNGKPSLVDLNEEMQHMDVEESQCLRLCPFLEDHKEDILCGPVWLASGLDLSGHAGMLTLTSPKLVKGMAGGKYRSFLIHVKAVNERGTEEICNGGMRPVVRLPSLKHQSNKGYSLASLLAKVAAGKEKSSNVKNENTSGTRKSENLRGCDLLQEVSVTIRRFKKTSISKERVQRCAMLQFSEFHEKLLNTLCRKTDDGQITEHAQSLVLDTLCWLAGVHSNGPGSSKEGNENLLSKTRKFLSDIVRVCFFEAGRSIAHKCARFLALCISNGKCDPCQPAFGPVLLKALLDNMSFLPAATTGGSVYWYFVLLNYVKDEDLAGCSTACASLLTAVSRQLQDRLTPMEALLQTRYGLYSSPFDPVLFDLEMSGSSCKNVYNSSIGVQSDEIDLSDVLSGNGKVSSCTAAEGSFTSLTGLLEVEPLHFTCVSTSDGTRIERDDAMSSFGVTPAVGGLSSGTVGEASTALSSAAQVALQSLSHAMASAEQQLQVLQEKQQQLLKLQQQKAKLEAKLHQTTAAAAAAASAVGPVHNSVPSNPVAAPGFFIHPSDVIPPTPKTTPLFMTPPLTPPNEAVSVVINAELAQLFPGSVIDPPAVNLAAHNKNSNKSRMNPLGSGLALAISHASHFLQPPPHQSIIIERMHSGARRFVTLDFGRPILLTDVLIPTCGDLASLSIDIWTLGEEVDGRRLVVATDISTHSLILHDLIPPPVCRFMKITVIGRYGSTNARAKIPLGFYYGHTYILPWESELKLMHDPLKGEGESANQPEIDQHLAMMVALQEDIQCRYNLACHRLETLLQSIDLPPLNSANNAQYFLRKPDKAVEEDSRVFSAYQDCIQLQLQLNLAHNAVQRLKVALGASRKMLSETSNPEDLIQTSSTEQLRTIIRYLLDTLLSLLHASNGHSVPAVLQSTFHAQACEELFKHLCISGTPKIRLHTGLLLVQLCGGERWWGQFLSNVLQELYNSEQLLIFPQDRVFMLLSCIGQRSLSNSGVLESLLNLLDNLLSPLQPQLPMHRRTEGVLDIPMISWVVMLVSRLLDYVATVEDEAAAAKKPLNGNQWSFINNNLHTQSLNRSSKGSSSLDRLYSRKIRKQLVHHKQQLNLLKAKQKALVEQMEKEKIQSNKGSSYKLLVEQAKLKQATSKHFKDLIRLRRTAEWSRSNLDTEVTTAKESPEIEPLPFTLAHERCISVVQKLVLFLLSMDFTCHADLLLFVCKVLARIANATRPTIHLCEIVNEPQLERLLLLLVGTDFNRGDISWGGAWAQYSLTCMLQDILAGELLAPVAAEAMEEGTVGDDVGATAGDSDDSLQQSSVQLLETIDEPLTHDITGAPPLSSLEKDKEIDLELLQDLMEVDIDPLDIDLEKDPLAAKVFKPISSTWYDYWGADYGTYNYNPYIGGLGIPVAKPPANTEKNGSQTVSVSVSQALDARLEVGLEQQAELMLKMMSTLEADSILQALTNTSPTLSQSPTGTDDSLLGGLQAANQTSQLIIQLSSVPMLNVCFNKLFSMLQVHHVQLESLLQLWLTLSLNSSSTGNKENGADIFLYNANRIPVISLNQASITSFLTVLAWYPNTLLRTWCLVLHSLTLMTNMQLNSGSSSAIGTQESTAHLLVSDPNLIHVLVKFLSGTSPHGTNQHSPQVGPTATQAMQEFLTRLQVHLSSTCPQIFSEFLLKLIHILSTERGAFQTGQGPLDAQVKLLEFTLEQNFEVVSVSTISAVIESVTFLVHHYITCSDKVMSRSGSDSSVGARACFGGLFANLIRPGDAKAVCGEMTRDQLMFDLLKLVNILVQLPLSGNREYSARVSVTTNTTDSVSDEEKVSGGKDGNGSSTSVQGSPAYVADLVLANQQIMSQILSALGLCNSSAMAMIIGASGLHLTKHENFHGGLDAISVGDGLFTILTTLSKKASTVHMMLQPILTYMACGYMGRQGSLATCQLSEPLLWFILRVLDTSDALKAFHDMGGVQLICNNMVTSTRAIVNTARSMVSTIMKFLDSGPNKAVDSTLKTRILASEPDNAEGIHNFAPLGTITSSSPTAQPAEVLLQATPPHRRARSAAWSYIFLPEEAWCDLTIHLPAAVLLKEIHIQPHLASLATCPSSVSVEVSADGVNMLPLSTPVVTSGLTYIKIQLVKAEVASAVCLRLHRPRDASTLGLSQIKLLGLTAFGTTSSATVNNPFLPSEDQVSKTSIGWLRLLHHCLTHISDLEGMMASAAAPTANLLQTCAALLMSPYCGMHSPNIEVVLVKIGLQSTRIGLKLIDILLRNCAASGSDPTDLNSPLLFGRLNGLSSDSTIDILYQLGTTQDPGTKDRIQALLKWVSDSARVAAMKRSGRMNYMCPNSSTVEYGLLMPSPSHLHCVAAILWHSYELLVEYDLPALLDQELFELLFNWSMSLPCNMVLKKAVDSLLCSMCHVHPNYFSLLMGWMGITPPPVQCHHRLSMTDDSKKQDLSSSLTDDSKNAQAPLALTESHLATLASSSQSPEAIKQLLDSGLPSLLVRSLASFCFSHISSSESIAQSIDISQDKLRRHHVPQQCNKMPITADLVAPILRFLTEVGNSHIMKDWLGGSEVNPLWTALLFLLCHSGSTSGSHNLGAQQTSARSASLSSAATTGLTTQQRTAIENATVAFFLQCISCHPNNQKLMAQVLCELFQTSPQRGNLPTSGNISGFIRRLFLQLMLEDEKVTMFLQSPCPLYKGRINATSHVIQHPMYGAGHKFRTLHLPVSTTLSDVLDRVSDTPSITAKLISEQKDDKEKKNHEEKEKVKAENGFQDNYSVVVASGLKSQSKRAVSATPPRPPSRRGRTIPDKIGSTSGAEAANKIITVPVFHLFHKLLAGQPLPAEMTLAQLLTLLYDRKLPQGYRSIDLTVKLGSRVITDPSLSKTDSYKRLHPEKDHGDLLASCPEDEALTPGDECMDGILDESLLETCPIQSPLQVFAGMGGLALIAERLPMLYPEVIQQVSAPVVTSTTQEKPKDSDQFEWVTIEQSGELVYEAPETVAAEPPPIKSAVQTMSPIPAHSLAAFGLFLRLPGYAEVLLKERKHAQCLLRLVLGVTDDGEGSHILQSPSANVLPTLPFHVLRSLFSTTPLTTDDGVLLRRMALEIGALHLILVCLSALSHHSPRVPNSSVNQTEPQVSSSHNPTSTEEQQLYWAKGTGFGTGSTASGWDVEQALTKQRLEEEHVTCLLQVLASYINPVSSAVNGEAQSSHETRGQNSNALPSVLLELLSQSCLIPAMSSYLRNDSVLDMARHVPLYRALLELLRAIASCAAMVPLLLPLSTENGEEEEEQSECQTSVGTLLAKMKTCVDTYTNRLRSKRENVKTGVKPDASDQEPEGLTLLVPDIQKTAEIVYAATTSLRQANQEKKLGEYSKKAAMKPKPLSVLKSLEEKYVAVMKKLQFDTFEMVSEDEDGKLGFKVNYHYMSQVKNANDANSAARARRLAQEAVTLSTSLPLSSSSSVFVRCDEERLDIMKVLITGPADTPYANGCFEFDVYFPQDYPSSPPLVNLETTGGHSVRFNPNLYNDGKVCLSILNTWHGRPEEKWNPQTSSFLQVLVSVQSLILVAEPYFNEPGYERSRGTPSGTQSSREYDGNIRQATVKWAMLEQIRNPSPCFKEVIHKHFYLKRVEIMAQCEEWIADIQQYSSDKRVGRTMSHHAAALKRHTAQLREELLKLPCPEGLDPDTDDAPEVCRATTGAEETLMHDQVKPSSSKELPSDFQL
Chain of activated caspase-3 (WT), His6-tagged, RED-tris-NTA labelled (P42574 whole entry): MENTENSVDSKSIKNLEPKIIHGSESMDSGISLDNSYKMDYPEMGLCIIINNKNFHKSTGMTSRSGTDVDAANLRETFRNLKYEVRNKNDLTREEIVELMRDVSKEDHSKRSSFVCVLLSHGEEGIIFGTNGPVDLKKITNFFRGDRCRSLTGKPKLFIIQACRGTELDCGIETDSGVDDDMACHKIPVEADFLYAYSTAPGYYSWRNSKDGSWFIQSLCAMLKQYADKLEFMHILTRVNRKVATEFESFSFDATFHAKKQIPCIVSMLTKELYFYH

**Q.** How did the stoichiometry N [1] turn out when “BIRC6 (Baculoviral IAP repeat-containing protein 6), full-length, wild-type, tag removed, Q9NR09 1-4857” was run?
**A.** The stoichiometry N was 2.

**Q.** And the stoichiometry N [2]?
**A.** The stoichiometry N was 2.

**Q.** What about the stoichiometry N [3] of the same molecule?
**A.** Its stoichiometry N is 2.

**Q.** And the fold greater affinity than for monomeric SMAC (V81D) [4]?
**A.** The fold greater affinity than for monomeric SMAC (V81D) was greater than 10 fold.

**Q.** How did the Kd [5] turn out when “BIRC6 (Baculoviral IAP repeat-containing protein 6), full-length, wild-type, tag removed (from UniProt Q9NR09 1-4857) (enzyme)” was run?
**A.** The Kd was 8.9 nM.

**Q.** And the Kd [6]?
**A.** The Kd was 46.4 nM.

**Q.** What about the Kd [7] of the same molecule?
**A.** Its Kd is 17.1 nM.

B1: SMAC (second mitochondria-derived activator of caspase), a.a. 56-239, wild-type, unlabelled (natural protein)
chain: AVPIAQKSEPHSLSSEALMRRAVSLVTDSTSTFLSQTTYALIEAITEYTKAVYTLTSLYRQYTSLLGKMNSEEEDEVWQVIIGARAEMTSKHQEYLKLETTWMTAVGLSEMAAEAAYQTGADQASITARNHIQLVKLQVEEVHQLSRKAETKLAEAQIEELRQKTQEEGEERAESEQEAYLRED
**Q.** Which “stoichiometry N” value (cryo-EM structure) does the source give for B1 here?
**A.** Its value is 2.

**Q.** What about the IC50 [8] of the same molecule?
**A.** The IC50 was 8.3 nM.

**Q.** And the Kd [8]?
**A.** The Kd was roughly 0.6 nM.

B2: Alexa555-SMAC (WT), a.a. 56-239 with a C-terminal cysteine (natural protein)
chain: AVPIAQKSEPHSLSSEALMRRAVSLVTDSTSTFLSQTTYALIEAITEYTKAVYTLTSLYRQYTSLLGKMNSEEEDEVWQVIIGARAEMTSKHQEYLKLETTWMTAVGLSEMAAEAAYQTGADQASITARNHIQLVKLQVEEVHQLSRKAETKLAEAQIEELRQKTQEEGEERAESEQEAYLREDC
modifications: Alexa Fluor 555 on the C-terminal cysteine
**Q.** Does B2 bind [9]?
**A.** Result: binds

B3: Alexa 555 monomeric SMAC (V81D), a.a. 56-239 with a C-terminal cysteine (natural protein)
chain: AVPIAQKSEPHSLSSEALMRRAVSLDTDSTSTFLSQTTYALIEAITEYTKAVYTLTSLYRQYTSLLGKMNSEEEDEVWQVIIGARAEMTSKHQEYLKLETTWMTAVGLSEMAAEAAYQTGADQASITARNHIQLVKLQVEEVHQLSRKAETKLAEAQIEELRQKTQEEGEERAESEQEAYLREDC
modifications: Alexa Fluor 555 on the C-terminal cysteine
**Q.** For B3, which Kd [9] is on record?
**A.** Its Kd is 12.1 ± 1.5 nM.

**Q.** How did the Kd [9] turn out when AVPIAQKSEC (Cy3 on the C-terminal cysteine; C-terminal amide) [Cy3-labelled SMAC N-terminal peptide, AVPIAQKSEC(Cy3)-Am] was run?
**A.** Its Kd is 35.6 ± 3 nM.
